Results reported in patent US20230121197A1, “ANTIBODIES SPECIFICALLY BINDING THE CARBOXYMETHYLATED CATALYTIC SUBUNIT OF PROTEIN PHOSPHATASE 2A” (Medizinische Universität Wien, priority 2020, published 2023).

T1: C-terminal PP2Ac peptide Y307F, CGEPHVTRRTPDFFL (15-mer)
T1 construct: Non-carboxymethylated; Phe in place of Tyr307; Crosslinked to BSA in the Western blot; free or linked to BSA in the ELISA
T1 peptide: CGEPHVTRRTPDFFL

B1: recombinant monovalent single chain variable fragment (scFv) of antibody 7C10-C5 (scFv)
scFv: DVLMTQTPLSLPVSLGDQASISCRSSQSIVHSNGNTYLEWYLQKPGQSPKLLIYKVSNRFSGVPDRFSGSGSGTDFTLKINRVEAEDLGVYYCFQGSHVPWTFGGGTKLEIKSSGGGGSGGGGGGSSRSSLDVQLQESGPGLVKPSQSLSLTCSVTGYSITSGYYWNWIRQFPGNKLEWMGYISYDGSNNYNPSLKNRISITRDTSKNQFFLKLNSVTTEDTATYYCAGRFAYWGQGTLVTVSAAKTTPPSVTSGQAGQHHHHHHGAYPYDVPDYAS
notes: VL - 19 aa linker - VH - 8 aa of CH1 - 6xHis - HA tag; secreted into HEK293T supernatant, used undiluted; also called 7C10 scFvs; monovalent 7C10-C5 scFv
B2: recombinant bivalent single chain variable fragment (scFv) of antibody 7C10-C5 (scFv)
scFv: DVLMTQTPLSLPVSLGDQASISCRSSQSIVHSNGNTYLEWYLQKPGQSPKLLIYKVSNRFSGVPDRFSGSGSGTDFTLKINRVEAEDLGVYYCFQGSHVPWTFGGGTKLEIKSSGGGGSGGGGGGSSRSSLDVQLQESGPGLVKPSQSLSLTCSVTGYSITSGYYWNWIRQFPGNKLEWMGYISYDGSNNYNPSLKNRISITRDTSKNQFFLKLNSVTTEDTATYYCAGRFAYWGQGTLVTVSAAKTTPPSVGSGSGSGSGSGSGSGSGSGSGSGSGSGSGSDVLMTQTPLSLPVSLGDQASISCRSSQSIVHSNGNTYLEWYLQKPGQSPKLLIYKVSNRFSGVPDRFSGSGSGTDFTLKINRVEAEDLGVYYCFQGSHVPWTFGGGTKLEIKSSGGGGSGGGGGGSSRSSLDVQLQESGPGLVKPSQSLSLTCSVTGYSITSGYYWNWIRQFPGNKLEWMGYISYDGSNNYNPSLKNRISITRDTSKNQFFLKLNSVTTEDTATYYCAGRFAYWGQGTLVTVSAAKTTPPSVTSGQAGQHHHHHHGAYPYDVPDYAS
notes: Two VL-linker-VH units joined by a (Gly-Ser)x15 linker, C-terminal 6xHis and HA tag; HEK293T supernatant, undiluted; Signal peptide (residues 1-22, before the first VL) left out by counting; also called 7C10 bi-scFvs; bivalent 7C10-C5 scFv
B3: recombinant 7C10-C5: recombinant 7C10-C5 antibody with mIgCK light chain and mIgG2a heavy chain (SEQ ID NO:123, 125) (protein)
light: MDMRVPAQLLGLLLLWLSGARCDVLMTQTPLSLPVSLGDQASISCRSSQSIVHSNGNTYLEWYLQKPGQSPKLLIYKVSNRFSGVPDRFSGSGSGTDFTLKINRVEAEDLGVYYCFQGSHVPWTFGGGTKLEIKADAAPTVSIFPPSSEQLTSGGASVVCFLNNFYPKDINVKWKIDGSERQNGVLNSWTDQDSKDSTYSMSSTLTLTKDEYERHNSYTCEATHKTSTSPIVKSFNRNEC
heavy: MYRMQLLSCIALSLALVTNSDVQLQESGPGLVKPSQSLSLTCSVTGYSITSGYYWNWIRQFPGNKLEWMGYISYDGSNNYNPSLKNRISITRDTSKNQFFLKLNSVTTEDTATYYCAGRFAYWGQGTLVTVSAAKTTAPSVYPLAPVCGDTTGSSVTLGCLVKGYFPEPVTLTWNSGSLSSGVHTFPAVLQSDLYTLSSSVTVTSSTWPSQSITCNVAHPASSTKVDKKIEPRGPTIKPCPPCKCPAPNLLGGPSVFIFPPKIKDVLMISLSPIVTCVVVDVSEDDPDVQISWFVNNVEVHTAQTQTHREDYNSTLRVVSALPIQHQDWMSGKEFKCKVNNKDLPAPIERTISKPKGSVRAPQVYVLPPPEEEMTKKQVTLTCMVTDFMPEDIYVEWTNNGKTELNYKNTEPVLDSDGSYFMYSKLRVEKKNWVERNSYSCSVVHEGLHNHHTTKSFSRTPGK
modifications: Amino acid sequence of the recombinant 7C10-C5 light chain; Amino acid sequence of the recombinant 7C10-C5 heavy chain

Tests used:
[1] = biological target: T1, C-terminal PP2Ac peptide Y307F, …; experiment: Western blot of 100 ng BSA crosslinked with peptide, detected through 16B12
Experimental: 100 ng of BSA crosslinked with peptides (L309: […] (SEQ ID NO:49), Y307F: […] (SEQ ID NO.50), pY307: […]pYFL (SEQ ID NO:51) or meL309: […]-CH₃) (SEQ ID NO:49) was separated by 10% SDS-PAGE and transferred to nitrocellulose membrane (0.2 μm, GE Healthcare). […] The membranes were blocked in 3% non-fatty dry milk (NFDM) in TBS-Tween for 1 h at RT and incubated with single clone hybridoma cell culture supernatant, clone 7C10-C5 diluted 1:100 in 0.5% NFDM in TBS-T (7C10 X63), recombinant single chain variable fragment of antibody 7C10-C5, undiluted (7C10 scFvs), recombinant bivalent single chain variable fragment 7C10-C5, undiluted (7C10 bi-scFvs) or single clone hybridoma cell culture supernatant, clone 1D7 (binding to non-carboxymethylated PP2Ac) 1:100 in 0.5% NFDM in TBS-T o/n at 4° C. After washing 3×5 min in TBS-T, blots incubated with recombinant antibodies were incubated with mouse anti-HA monoclonal antibody 16B12 (recognizing the hemagglutinin (HA) tag on the recombinant antibody), 1:10000 in 0.5% NFDM in TBS-T 2 h at room temperature. After washing 3×5 min in TBS-T, incubation with anti-mouse-HRP coupled secondary antibody for 1 h at RT and 3×10 min washes in TBS-T was performed. ECL was performed with GE Healthcare ECL reagents (RPN2106) mixed 1:3 with Clarity™ Western ECL Substrate, 500 ml #1705061 (Biorad). Signals were detected by exposure of X-ray films. […]

[2] = biological target: T2, C-terminal PP2Ac peptides L309, Y307F, pY307, meL309 (Homo sapiens, UniProt P67775); experiment: ELISA with CGEPHVTRRTPDYFL peptides free or linked to BSA (scFv and recombinant 7C10-C5); assay type: binding; conditions: peptides free or linked to BSA
T2 construct: coated with C-terminal PP2Ac peptides either free or linked to BSA; BSA (carrier)
Experimental: Nunc Medisorp 96-well ELISA flat-bottom plates were coated with C-terminal PP2Ac peptides either free or linked to BSA. Specifically, the peptides were: unmodified L309 (CGEPHVTRRTPDYFL) (SEQ ID NO:49), Y307F (CGEPHVTRRTPDFFL) (SEQ ID NO:50), pY307 (CGEPHVTRRTPDpYFL) (SEQ ID NO:51) or carboxymethylated meL309 (CGEPHVTRRTPDYFL-CH3) (SEQ ID NO:49), on the ELISA plate at 8 μg/ml in TBS (free) or 1 μg/ml in TBS (linked to BSA) at 4° C. overnight. After washing twice with TBS, the wells were incubated with 2% BSA in TBS for 1 h at RT. After washing once with TBS, the wells were incubated with single clone hybridoma cell culture supernatant, clone 7C10-C5 1:50 (7C10 X63), recombinant single chain variable fragment of antibody 7C10-C5, undiluted (7C10 scFvs), or recombinant bivalent single chain variable fragment of antibody 7C10-C5, undiluted (7C10 bi-scFvs). After washing 3× with TBS, wells incubated with recombinant antibodies were incubated with monoclonal antibody 16B12, 1:10000 (recognizing the hemagglutinin tag on the recombinant antibody) in 1% BSA TBS 1 h at room temperature. After washing 3× in TBS, incubation with anti-mouse-HRP coupled secondary antibody for 1 h at RT was performed. Bound antibodies were detected by colorimetric reaction with 3,3′,5,5′-Tetramethylbenzidine as substrate, and absorbance was measured at 450 nm. Values were normalized to meL309 which was arbitrarily set to 1. Average and standard deviation of N=3 experiments are shown.
Nunc Medisorp 96-well ELISA flat-bottom plates were coated with peptides either free or linked to BSA, L309 (CGEPHVTRRTPDYFL) (SEQ ID NO:49) or meL309 (CGEPHVTRRTPDYFL-CH3) (SEQ ID NO:49), on the ELISA plate at 0.5 μg/ml in TBS (free) or […] in TBS (linked to BSA) at 4° C. over night. After washing twice with TBS, the wells were incubated with 2% BSA in TBS for 1 h at RT. After washing once with TBS, the wells were incubated with single clone hybridoma cell culture supernatant, clone 7C10-C5 1:50 (7C10 X63), or recombinant antibody 7C10-C5 undiluted (rec 7C10). After washing 3× with TBS, incubation with anti-mouse-HRP coupled secondary antibody for 1 h at RT was performed. Bound antibodies were detected by colorimetric reaction with 3,3′,5,5′-Tetramethylbenzidine as substrate, and absorbance was measured at 450 nm. Values were normalized to meL309 incubated with 7C10 X63, which was arbitrarily set to 1. Average and standard deviation of N=3 experiments are shown (FIG. 30).

PP2Ac = biological target: T3, PP2Ac (Homo sapiens, UniProt P67775); experiment: Western blot of human cell lysates (HAP1, HEK293; NaOH treatment, Lcmt-1-KO); assay type: binding; conditions: HAP1, HEK293
T3 construct: the carboxy-terminal methyl group was chemically removed from cellular PP2Ac; endogenous in cells; host or cells: HAP1 wild type, HAP1 Lcmt-1-KO, HEK293Trex / HEK293T
Experimental: NIH3T3 mouse fibroblasts and human embryonic kidney cells (HEK293Trex) were grown in DMEM+10% FCS+2 mM L-glutamine (Sigma, G2150)+100 units/ml Penicillin/0.1 mg/ml Streptomycin at 37° C. in a 7.5% CO2 atmosphere. HAP1 wild type and HAP1 Lcmt-1-KO cells (Leucine carboxyl methyltransferase 1 deleted by CRISPR/Cas9; Horizon Discovery, #C631 and #HZGHC004373c001) were grown in Iscove's Modified Dulbecco's Medium (IMDM, Thermo Fischer Scientific, Life Technologies #12440053) supplemented with 10% (v/v) Fetal Calf Serum (FCS) (Sigma #F7524, lot 104M3333), GlutaMAX™ (Thermo Fischer Scientific, Life Technologies #35050-38, lot 1895829), and Penicillin-Streptomycin solution (Sigma, #P4333, lot 125M4781V) in a 5% CO2 atmosphere. Of note, HAP1 is a near-haploid human cell line that was derived from the chronic myelogenous leukemia (CML) cell line KBM-7 (Carette (2011), Nature 477(7364):340-3). For cell lysis, exponentially growing cells were washed once with ice-cold PBS, once with ice-cold IP-Wash buffer (20 mmol/l Tris pH 8.0, 135 mmol/l NaCl, 10% glycerol) and lysed on the petri-dish in ice-cold IP-Lyse buffer (18 mmol/l Tris pH 8.0, 122 mmol/l NaCl, 9% glycerol, 1% w/v NP-40) for 20 min at 4° C. rocking. Lysed cells were transferred to Eppendorf 1.5 ml tubes and centrifuged for 15 min at 14,000 rpm at 4° C. in a Beckman & Coulter Microfuge 18 centrifuge. The protein concentration was determined with the Protein Assay Dye Reagent (Biorad, 500-0006) and measurement of absorbance at 595 nm in a Hitachi U-2000 spectrophotometer. […]
To test these antibodies in the western blot analysis with methylated and non-methylated full-length PP2Ac the methyl group was chemically removed from cellular PP2Ac by treating lysates of the human cell line, HAP1, with NaOH, as described in Example 2. […] In agreement with the results of the NaOH experiments, […] of PP2Ac were detected in HAP1 cells that lack the PP2A methyltransferase LCMT-1 indicating the preference of these antibodies for non-methylated PP2Ac (FIG. 22). […]

T3 sequence (P67775 whole entry): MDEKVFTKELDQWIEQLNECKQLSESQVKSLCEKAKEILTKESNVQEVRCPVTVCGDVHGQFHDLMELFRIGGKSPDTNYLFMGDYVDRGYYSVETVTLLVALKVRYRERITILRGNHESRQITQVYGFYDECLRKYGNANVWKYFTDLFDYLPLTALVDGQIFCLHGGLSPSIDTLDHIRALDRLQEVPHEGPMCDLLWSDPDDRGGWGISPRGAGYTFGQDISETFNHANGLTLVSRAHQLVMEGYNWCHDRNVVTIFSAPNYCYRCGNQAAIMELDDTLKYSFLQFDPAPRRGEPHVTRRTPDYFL

Molecule | binding result [1] | recognition of meL309 versus non-carboxymethylated peptides [2] | detection of PP2Ac in untreated versus NaOH treated cell lysates (PP2Ac)
B1 | no binding (tested: undiluted supernatant) |  | 
B2 | no binding (tested: undiluted supernatant) |  | 
B3 |  | Specific for the α-Carboxymethylated PP2Ac | only detected methylated PP2Ac in the untreated cell lysates but not in the NaOH treated lysates
